Where only a bound is given, the exact number is not on record here.

The values that follow come from US20110124576A1 (NOVOZYMES A S, published 2011).

The target of assay [1] is T1, transferrin receptor on human erythroleukemic K562 cells (human, UniProt P02786 1-760). The assay can be described thus: cell-based or functional assay.
The target of assay [2] is T1, transferrin receptor on human …. In words: specific 55Fe uptake from labelled diferric transferrin into K562 cells, 25 min at 37 C, 12.5-2000 nM; unspecific uptake (hundredfold unlabelled transferrin) subtracted; mean ± S.E.M. of three experiments. The method, then:
Iron uptake from labelled diferric transferrins was performed as follows. K562 erythroleukemic cells, cultured in RPMI cell culture medium under standard conditions (bicarbonate-buffered, 5% CO₂, antibiotics, 10% foetal calf serum) were washed with serum-free medium containing HEPES-buffer and 1 mg/ml of bovine serum albumin and used at a concentration of 10 million cells/ml in this medium.
The reaction was started by the addition of 50 μl of cell suspension.
After 25 min at 37° C. the reaction was stopped by immersion into an ice-bath, three aliquots of 30 μL of cell suspension were transferred to new tubes and the cells were centrifuged in the cold and again after addition of an oil layer of diethylphtalate/dibutylphthalate. The supernatant was removed, the cell pellet transferred into a counter vial and lysed with 0.5 M KOH+1% Triton X-100. The lysates were neutralized with 1M HCl after overnight lysis, mixed with Readysolv scintillation cocktail and counted in the Packard Liquid Scintillation Counter.

The target is the same in assay [3]. The assay can be described thus: cell-based or functional assay. The source holds these as a separate data set.

T1 sequence (P02786 whole entry): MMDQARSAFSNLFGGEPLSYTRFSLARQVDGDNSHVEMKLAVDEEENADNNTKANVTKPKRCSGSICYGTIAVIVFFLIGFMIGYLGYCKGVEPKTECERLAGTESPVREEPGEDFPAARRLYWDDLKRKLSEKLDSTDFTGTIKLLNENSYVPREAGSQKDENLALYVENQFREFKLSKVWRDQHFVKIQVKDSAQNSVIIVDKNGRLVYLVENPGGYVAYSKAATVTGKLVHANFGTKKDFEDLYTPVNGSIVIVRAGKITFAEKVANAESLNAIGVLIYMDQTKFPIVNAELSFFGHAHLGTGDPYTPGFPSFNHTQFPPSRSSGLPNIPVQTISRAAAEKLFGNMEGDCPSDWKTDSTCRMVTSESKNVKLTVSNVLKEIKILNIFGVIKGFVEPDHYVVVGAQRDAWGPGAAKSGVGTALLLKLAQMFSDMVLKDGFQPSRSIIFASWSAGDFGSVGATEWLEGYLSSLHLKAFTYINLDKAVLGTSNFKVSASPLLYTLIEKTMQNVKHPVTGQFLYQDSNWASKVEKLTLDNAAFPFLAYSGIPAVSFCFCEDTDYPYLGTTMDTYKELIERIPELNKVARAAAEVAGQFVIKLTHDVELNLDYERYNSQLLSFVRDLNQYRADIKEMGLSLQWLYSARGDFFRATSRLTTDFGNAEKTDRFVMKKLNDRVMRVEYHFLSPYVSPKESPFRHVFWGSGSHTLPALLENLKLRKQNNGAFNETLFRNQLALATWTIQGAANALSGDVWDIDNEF

B1: recombinant human transferrin (S415A, T613A) (ligand)
chain: VPDKTVRWCAVSEHEATKCQSFRDHMKSVIPSDGPSVACVKKASYLDCIRAIAANEADAVTLDAGLVYDAYLAPNNLKPVVAEFYGSKEDPQTFYYAVAVVKKDSGFQMNQLRGKKSCHTGLGRSAGWNIPIGLLYCDLPEPRKPLEKAVANFFSGSCAPCADGTDFPQLCQLCPGCGCSTLNQYFGYSGAFKCLKDGAGDVAFVKHSTIFENLANKADRDQYELLCLDNTRKPVDEYKDCHLAQVPSHTVVARSMGGKEDLIWELLNQAQEHFGKDKSKEFQLFSSPHGKDLLFKDSAHGFLKVPPRMDAKMYLGYEYVTAIRNLREGTCPEAPTDECKPVKWCALSHHERLKCDEWSVNSVGKIECVSAETTEDCIAKIMNGEADAMSLDGGFVYIAGKCGLVPVLAENYNKADNCEDTPEAGYFAVAVVKKSASDLTWDNLKGKKSCHTAVGRTAGWNIPMGLLYNKINHCRFDEFFSEGCAPGSKKDSSLCKLCMGSGLNLCEPNNKEGYYGYTGAFRCLVEKGDVAFVKHQTVPQNTGGKNPDPWAKNLNEKDYELLCLDGTRKPVEEYANCHLARAPNHAVVTRKDKEACVHKILRQQQHLFGSNVADCSGNFCLFRSETKDLLFRDDTVCLAKLHDRNTYEKYLGEEYVKAVGNLRKCSTSSLLEACTFRRP
notes: Secreted from S. cerevisiae; 55Fe-loaded (diferric) in the K562 assay; also called Deltaferrin; rTf
Consider B1, for which the “Specific iron uptake Bmax” value in assay [1] is 2830 fmol 55Fe/10^6 cells x 25 min. Moreover, in assay [2], binding was characterised by a dissociation constant (Kd) of 130 nM.

B2: recombinant thiotransferrin (S28C, S415A, T613A) (ligand)
chain: VPDKTVRWCAVSEHEATKCQSFRDHMKCVIPSDGPSVACVKKASYLDCIRAIAANEADAVTLDAGLVYDAYLAPNNLKPVVAEFYGSKEDPQTFYYAVAVVKKDSGFQMNQLRGKKSCHTGLGRSAGWNIPIGLLYCDLPEPRKPLEKAVANFFSGSCAPCADGTDFPQLCQLCPGCGCSTLNQYFGYSGAFKCLKDGAGDVAFVKHSTIFENLANKADRDQYELLCLDNTRKPVDEYKDCHLAQVPSHTVVARSMGGKEDLIWELLNQAQEHFGKDKSKEFQLFSSPHGKDLLFKDSAHGFLKVPPRMDAKMYLGYEYVTAIRNLREGTCPEAPTDECKPVKWCALSHHERLKCDEWSVNSVGKIECVSAETTEDCIAKIMNGEADAMSLDGGFVYIAGKCGLVPVLAENYNKADNCEDTPEAGYFAVAVVKKSASDLTWDNLKGKKSCHTAVGRTAGWNIPMGLLYNKINHCRFDEFFSEGCAPGSKKDSSLCKLCMGSGLNLCEPNNKEGYYGYTGAFRCLVEKGDVAFVKHQTVPQNTGGKNPDPWAKNLNEKDYELLCLDGTRKPVEEYANCHLARAPNHAVVTRKDKEACVHKILRQQQHLFGSNVADCSGNFCLFRSETKDLLFRDDTVCLAKLHDRNTYEKYLGEEYVKAVGNLRKCSTSSLLEACTFRRP
modifications: free thiol at Cys 28
notes: Iron-loaded in SPR, 55Fe-loaded in the K562 assay; also called from Strain 1 [pDB3767]
With B2, in assay [1], the “Specific iron uptake Bmax” value was 3020 fmol 55Fe/10^6 cells x 25 min. In addition, the “specific iron uptake into K562 cells” value in assay [3] was > 5 % of the level for the transferrin (S415A, T613A) control. Besides, the Kd – broadly, a measure of binding affinity in units of concentration – in assay [2] was 209 nM.

B3: recombinant thiotransferrin (S415C, T613A) (ligand)
chain: VPDKTVRWCAVSEHEATKCQSFRDHMKSVIPSDGPSVACVKKASYLDCIRAIAANEADAVTLDAGLVYDAYLAPNNLKPVVAEFYGSKEDPQTFYYAVAVVKKDSGFQMNQLRGKKSCHTGLGRSAGWNIPIGLLYCDLPEPRKPLEKAVANFFSGSCAPCADGTDFPQLCQLCPGCGCSTLNQYFGYSGAFKCLKDGAGDVAFVKHSTIFENLANKADRDQYELLCLDNTRKPVDEYKDCHLAQVPSHTVVARSMGGKEDLIWELLNQAQEHFGKDKSKEFQLFSSPHGKDLLFKDSAHGFLKVPPRMDAKMYLGYEYVTAIRNLREGTCPEAPTDECKPVKWCALSHHERLKCDEWSVNSVGKIECVSAETTEDCIAKIMNGEADAMSLDGGFVYIAGKCGLVPVLAENYNKCDNCEDTPEAGYFAVAVVKKSASDLTWDNLKGKKSCHTAVGRTAGWNIPMGLLYNKINHCRFDEFFSEGCAPGSKKDSSLCKLCMGSGLNLCEPNNKEGYYGYTGAFRCLVEKGDVAFVKHQTVPQNTGGKNPDPWAKNLNEKDYELLCLDGTRKPVEEYANCHLARAPNHAVVTRKDKEACVHKILRQQQHLFGSNVADCSGNFCLFRSETKDLLFRDDTVCLAKLHDRNTYEKYLGEEYVKAVGNLRKCSTSSLLEACTFRRP
modifications: free thiol at Cys 415
notes: Iron-loaded in SPR, 55Fe-loaded in the K562 assay; also called from Strain 1 [pDB3773]
As for B3, the “Specific iron uptake Bmax” value in assay [1] was 2360 fmol 55Fe/10^6 cells x 25 min. Further, in assay [3], the “specific iron uptake into K562 cells” value was > 5 % of the level for the transferrin (S415A, T613A) control. The Kd in assay [2] is 203 nM.

B4: fluorescein conjugated thiotransferrin (S28C, S415A, T613A) (ligand)
chain: VPDKTVRWCAVSEHEATKCQSFRDHMKCVIPSDGPSVACVKKASYLDCIRAIAANEADAVTLDAGLVYDAYLAPNNLKPVVAEFYGSKEDPQTFYYAVAVVKKDSGFQMNQLRGKKSCHTGLGRSAGWNIPIGLLYCDLPEPRKPLEKAVANFFSGSCAPCADGTDFPQLCQLCPGCGCSTLNQYFGYSGAFKCLKDGAGDVAFVKHSTIFENLANKADRDQYELLCLDNTRKPVDEYKDCHLAQVPSHTVVARSMGGKEDLIWELLNQAQEHFGKDKSKEFQLFSSPHGKDLLFKDSAHGFLKVPPRMDAKMYLGYEYVTAIRNLREGTCPEAPTDECKPVKWCALSHHERLKCDEWSVNSVGKIECVSAETTEDCIAKIMNGEADAMSLDGGFVYIAGKCGLVPVLAENYNKADNCEDTPEAGYFAVAVVKKSASDLTWDNLKGKKSCHTAVGRTAGWNIPMGLLYNKINHCRFDEFFSEGCAPGSKKDSSLCKLCMGSGLNLCEPNNKEGYYGYTGAFRCLVEKGDVAFVKHQTVPQNTGGKNPDPWAKNLNEKDYELLCLDGTRKPVEEYANCHLARAPNHAVVTRKDKEACVHKILRQQQHLFGSNVADCSGNFCLFRSETKDLLFRDDTVCLAKLHDRNTYEKYLGEEYVKAVGNLRKCSTSSLLEACTFRRP
modifications: fluorescein-5-maleimide conjugated to the free thiol of Cys 28
notes: Iron-loaded in SPR, 55Fe-loaded in the K562 assay; also called Fluorescein conjugated recombinant thiotransferrin (S28C, S415A, T613A)
Take B4: the “Specific iron uptake Bmax” value in assay [1] was 2430 fmol 55Fe/10^6 cells x 25 min. In assay [3], the “specific iron uptake into K562 cells” value is > 5 % of the level for the transferrin (S415A, T613A) control. Binding in assay [2] was put at a Kd of 154 nM.

B5: fluorescein conjugated thiotransferrin (S415C, T613A) (ligand)
chain: VPDKTVRWCAVSEHEATKCQSFRDHMKSVIPSDGPSVACVKKASYLDCIRAIAANEADAVTLDAGLVYDAYLAPNNLKPVVAEFYGSKEDPQTFYYAVAVVKKDSGFQMNQLRGKKSCHTGLGRSAGWNIPIGLLYCDLPEPRKPLEKAVANFFSGSCAPCADGTDFPQLCQLCPGCGCSTLNQYFGYSGAFKCLKDGAGDVAFVKHSTIFENLANKADRDQYELLCLDNTRKPVDEYKDCHLAQVPSHTVVARSMGGKEDLIWELLNQAQEHFGKDKSKEFQLFSSPHGKDLLFKDSAHGFLKVPPRMDAKMYLGYEYVTAIRNLREGTCPEAPTDECKPVKWCALSHHERLKCDEWSVNSVGKIECVSAETTEDCIAKIMNGEADAMSLDGGFVYIAGKCGLVPVLAENYNKCDNCEDTPEAGYFAVAVVKKSASDLTWDNLKGKKSCHTAVGRTAGWNIPMGLLYNKINHCRFDEFFSEGCAPGSKKDSSLCKLCMGSGLNLCEPNNKEGYYGYTGAFRCLVEKGDVAFVKHQTVPQNTGGKNPDPWAKNLNEKDYELLCLDGTRKPVEEYANCHLARAPNHAVVTRKDKEACVHKILRQQQHLFGSNVADCSGNFCLFRSETKDLLFRDDTVCLAKLHDRNTYEKYLGEEYVKAVGNLRKCSTSSLLEACTFRRP
modifications: fluorescein-5-maleimide conjugated to the free thiol of Cys 415
notes: Iron-loaded in SPR, 55Fe-loaded in the K562 assay; also called Fluorescein conjugated recombinant thiotransferrin (S415C, T613A)
In the case of B5, in assay [1], the “Specific iron uptake Bmax” value was 3250 fmol 55Fe/10^6 cells x 25 min. Further, the “specific iron uptake into K562 cells” value in assay [3] was > 5 % of the level for the transferrin (S415A, T613A) control. Moreover, the affinity in assay [2], expressed as Kd, was 189 nM.
